Test system: Bacillus subtilis
Assay: cleaved RNA product abundance (RNA/gDNA barcode ratio) relative to median wild-type variant (ratio to wild type); higher = more accumulation of the downstream cleavage product
Procedure, shortened: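 Reporter mRNAs (truncated aprE or tetM) carrying barcoded, mutagenized RNase Y cleavage-site windows were made from oligos with a 9% error rate and integrated into the B. subtilis chromosome. Cultures grew in LB at 37°C from OD600 0.0003 to 0.3. Cleaved RNA was gel-selected, reverse transcribed and barcode-sequenced alongside genomic DNA barcodes, with UMI collapsing. Cleaved product abundance is the RNA:gDNA barcode ratio per variant, scaled to the median wild-type variant.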

[1] = experiment (reporter, strain, medium): exp 4a: truncated aprE reporter, strain BJT201 with 2% xylose (RNase J1 expressed), cleavage site: cggR-gapA (positions -7 to +36 mutated)
[2] = experiment (reporter, strain, medium): exp 6: tetM reporter, strain 168, cleavage site: cggR-gapA (positions -7 to +36 mutated)
[3] = experiment (reporter, strain, medium): exp 2b: truncated aprE reporter, strain BJT200, cleavage site: cggR-gapA (positions -7 to +36 mutated)
[4] = experiment (reporter, strain, medium): exp 8a: truncated aprE reporter, strain BJT201 with 2% xylose (RNase J1 expressed), cleavage site: glnRA (positions -5 to +31 mutated)

In the case of “ACAGACGAAGGAGCCGCAAAGAAGTTTATAAGGGATGAATAATCCCTCAATATAAATATCTCTCACTTATTTAAA”, the “cleaved RNA product abundance” value [1] is reported as 0.438.
In the case of “ACAGACGAAGGAGCCGCAAAGAAGTTATTAAGGGATGAATAATCCCTCAATATAAATATCTCTCACTTATTTAAA”, the “cleaved RNA product abundance” value [2] is reported as 1.06.
With “ACAGACGAAGGAGCCGCAAAGAAGTTACTAAGGGATGAATAATCCCTCAATATATATATCTCTCACTTATTTAAA” the “cleaved RNA product abundance” value [1] was 0.346.
With “ACAGACGAAGGAGCCGCAAAGAAGTTATTAAGGGATGAATAATCCCTTAATATAAATATCTCTCACTTATTTAAA” the “cleaved RNA product abundance” value [3] was 0.782, the “cleaved RNA product abundance” value [1] was 0.595 and the “cleaved RNA product abundance” value [2] was 0.623.
With “ACAGACGAAGGAGCCGCAAAGATGTTATTAAGGGATGAATAATCTCTCAATATAAATATCTCTCACTTATTTAAA” the “cleaved RNA product abundance” value [1] was 0.874.
With “ACAGACGAAGGAGCCGCAAAGAAATTATTAAGGGATGAATAATCCCTTAATATAAATATCTCTCACTTATTTAAA” the “cleaved RNA product abundance” value [1] was 0.451.
For “CGACATGTCCCGCTTCTTTCATTAATCCGTTAGAAACTGTTTTGCTATATATATTTACCTTTTAAGAGGAGGAAT”, the “cleaved RNA product abundance” value [4] was 0.272.
“ACAGACGAAGGAGCCGCAACGAAGTTATTAAGGGATGAATAATCCCTCACTATAAATATCTCTCACTTATTTAAA” was tested, and the “cleaved RNA product abundance” value [1] was 0.435.
With “ACAGACGAAGGAGCCGCAAAGAAGTTATTAAGAGAAGAATAATCCCTCAATATAAATATCTCTCACTTATTTAAA” the “cleaved RNA product abundance” value [3] was 0.0791, the “cleaved RNA product abundance” value [1] was 0.101 and the “cleaved RNA product abundance” value [2] was 0.107.
With “CGACATGTCCCGCTTCTTTCATTAATCCGTTAGCAACTGTCTTGCTATCTACATTTACCTTTTAAGAGGAGGAAT” the “cleaved RNA product abundance” value [4] was 0.0931.
For “ACAGACGAAGGAGCCGCAAAGAAGTTATTAAGGGAAGAATAATCCCTCAAAATAAATATCTCTCACTTATTTAAA”, the “cleaved RNA product abundance” value [3] was 0.17 and the “cleaved RNA product abundance” value [1] was 0.182.
For “CGACATGTCCCGCTTCTTTCATTAATCCGTTAGCAAATATTTTGCTATATACATTTACCTTTTAAGAGGAGGAAT”, the “cleaved RNA product abundance” value [4] was 0.843.
With “ACAGACGAAGGAGCCGCAAAGAACTTATTAAGGGATGAGTAATCCCTCAATATAAATATCTCTCACTTATTTAAA” the “cleaved RNA product abundance” value [1] was 0.421.
For “ACAGACGAAGGAGCCGCAAAGAAGTTATTAAGGGAAGACTAATCCCTCAATATAAATATCTCTCACTTATTTAAA”, the “cleaved RNA product abundance” value [1] was 0.452.
For “ACAGACGAAGGAGCCGCAAAGAAGTTATTAATGGATGATTAATCCCTCAATATAAATATCTCTCACTTATTTAAA”, the “cleaved RNA product abundance” value [1] was 0.138.
In the case of “ACAGACGAAGGAGCCGCAAAGAAGTTAGTACGGGATGAATAATCCCTCAATATAAATATCTCTCACTTATTTAAA”, the “cleaved RNA product abundance” value [3] is reported as 0.269.
In the case of “ACAGACGAAGGAGCCGCAAAGAAGTTATTAAGTGATGAATAATCCCTCAATTTAAATATCTCTCACTTATTTAAA”, the “cleaved RNA product abundance” value [3] is reported as 0.0957 and the “cleaved RNA product abundance” value [1] is reported as 0.0598.
In the case of “ACAGACGAAGGAGCCGCAAAGAAGTTATTAATGGATGAATAATCCCTCAATATAAAAATCTCTCACTTATTTAAA”, the “cleaved RNA product abundance” value [3] is reported as 0.133 and the “cleaved RNA product abundance” value [1] is reported as 0.156.
“CGACATGTCCCGCTTCTTTCATTAATCCGTTAGCAACTGTTACGCTATATACATTTACCTTTTAAGAGGAGGAAT” was tested, and the “cleaved RNA product abundance” value [4] was 0.54.
In the case of “CGACATGTCCCGCTTCTTTCATTAATCAGTTAGCAACTGTTTTTCTATATACATTTACCTTTTAAGAGGAGGAAT”, the “cleaved RNA product abundance” value [4] is reported as 0.642.
“ACAGACGAAGGAGCCGCAAAGAAGTTATTAAGGAATGAATAATCCTTCAATATAAATATCTCTCACTTATTTAAA” was tested, and the “cleaved RNA product abundance” value [3] was 0.148 and the “cleaved RNA product abundance” value [1] was 0.265.
For “ACAGACGAAGGAGCCGCAAAGAAGTTATTAAGGGAAGAATAATCCCTCGATATAAATATCTCTCACTTATTTAAA”, the “cleaved RNA product abundance” value [1] was 0.521.
With “ACAGACGAAGGAGCCGCAAAGAAGTTATTAAGGGATAAATAATCCCTCAATATAATTATCTCTCACTTATTTAAA” the “cleaved RNA product abundance” value [3] was 0.507 and the “cleaved RNA product abundance” value [1] was 0.532.
With “ACAGACGAAGGAGCCGCAAAGAAGTTATTAAGGGATGAATAATCCCTCAATATAAATAACTCTCACTTATTTAAA” the “cleaved RNA product abundance” value [3] was 0.903, the “cleaved RNA product abundance” value [1] was 0.849 and the “cleaved RNA product abundance” value [2] was 0.706.
With “ACAGACGAAGGAGCCGCAAGGAAGTTATTAAGGGATGAATAATCCTTCAATATAAATATCTCTCACTTATTTAAA” the “cleaved RNA product abundance” value [1] was 0.43.
With “ACAGACGAAGGAGCCGCAAAGAAGTTATTAAAGGATGAATAACCCCTCAATATAAATATCTCTCACTTATTTAAA” the “cleaved RNA product abundance” value [3] was 0.105 and the “cleaved RNA product abundance” value [1] was 0.108.
With “CGACATGTCCCGCTTCTTTCATTAATCCGTTACCAACTGTTTTGCCATATACATTTACCTTTTAAGAGGAGGAAT” the “cleaved RNA product abundance” value [4] was 0.145.
In the case of “ACAGACGAAGGAGCCGCAAAGAAGTTATGAAGGGATGTATAATCCCTCAATATAAATATCTCTCACTTATTTAAA”, the “cleaved RNA product abundance” value [1] is reported as 0.311.
In the case of “ACAGACGAAGGAGCCGCAAAGAAGATATTAAGGGATGAACAATCCCTCAATATAAATATCTCTCACTTATTTAAA”, the “cleaved RNA product abundance” value [1] is reported as 0.647.
With “CGACATGTCCCGCTTCTTTCATTAATACGTTAGCAACTGTTTTTCTATATACATTTACCTTTTAAGAGGAGGAAT” the “cleaved RNA product abundance” value [4] was 0.455.
In the case of “ACAGACGAAGGAGCCGCAAAGAAGTTATTACCGGATGAATAATCCCTCAATATAAATATCTCTCACTTATTTAAA”, the “cleaved RNA product abundance” value [1] is reported as 0.155.
“CGACATGTCCCGCTTCTTTCATTAATACGATAGCAACTGTTTTGCTATATACATTTACCTTTTAAGAGGAGGAAT” was tested, and the “cleaved RNA product abundance” value [4] was 0.935.
With “ACAGACGAAGGAGCCGCAAACAAGTTATTAAGGGATGAATAATCCCTCAATATAACTATCTCTCACTTATTTAAA” the “cleaved RNA product abundance” value [1] was 0.0791.
In the case of “ACAGACGAAGGAGCCGCAAAGAAGTTATTAAGAGATGAATACTCCCTCAATATAAATATCTCTCACTTATTTAAA”, the “cleaved RNA product abundance” value [1] is reported as 0.0945.
In the case of “CGACATGTCCCGCTTCTTTCATTAATCCGTTAGGAACTGATTTGCTATATACATTTACCTTTTAAGAGGAGGAAT”, the “cleaved RNA product abundance” value [4] is reported as 0.415.
In the case of “ACAGACGAAGGAGCCGCAAAGAAATTATTAAGCGATGAATAATCCCTCAATATAAATATCTCTCACTTATTTAAA”, the “cleaved RNA product abundance” value [3] is reported as 0.096 and the “cleaved RNA product abundance” value [1] is reported as 0.121.
“CGACATGTCCCGCTTCTTTCATTAATCCGTTAGCAACTGTTTTGCGATATACATTAACCTTTTAAGAGGAGGAAT” was tested, and the “cleaved RNA product abundance” value [4] was 0.781.
“ACAGACGAAGGAGCCGCAAAGAAGTTATTAAGGATTGAATAATCCCTCAATATAAATATCTCTCACTTATTTAAA” was tested, and the “cleaved RNA product abundance” value [3] was 0.217 and the “cleaved RNA product abundance” value [1] was 0.301.
“ACAGACGAAGGAGCCGCACAGAAGTTATTAAGGGATGAATAATCCCTCAATATAAATATCTCTCACTTATTTAAA” was tested, and the “cleaved RNA product abundance” value [3] was 0.962, the “cleaved RNA product abundance” value [1] was 1.04 and the “cleaved RNA product abundance” value [2] was 1.07.
For “CGACATGTCCCGCTTCTTTCATTAATGCGTTAACAACTGTTTTGCTATATACATTTACCTTTTAAGAGGAGGAAT”, the “cleaved RNA product abundance” value [4] was 0.228.
With “ACAGACGAAGGAGCCGCAAAGAAGTTAATAAGGGATGAATAATCCCTCAATACAAATATCTCTCACTTATTTAAA” the “cleaved RNA product abundance” value [3] was 0.0847.
With “ACAGACGAAGGAGCCGCAAAGAAGTTATTAAGGGATGAAAAATCCTTCAATATAAATATCTCTCACTTATTTAAA” the “cleaved RNA product abundance” value [3] was 0.355 and the “cleaved RNA product abundance” value [1] was 0.505.
“ACAGACGAAGGAGCCGCAAAGAAGTTACTAAGGGATGGATAATCCCTCAATATAAATATCTCTCACTTATTTAAA” was tested, and the “cleaved RNA product abundance” value [1] was 0.208.
With “ACAGACGAAGGAGCCGCAAACAAGGTATTAAGGGATGAATAATCCCTCAATATAAATATCTCTCACTTATTTAAA” the “cleaved RNA product abundance” value [1] was 1.23.
With “ACAGACGAAGGAGCCGCAAAGAAGTTATTAAGTGATGAATAATCCCTCAATCTAAATATCTCTCACTTATTTAAA” the “cleaved RNA product abundance” value [1] was 0.0609.
“ACAGACGAAGGAGCCGCAAAGAATTTATTAAGGGGTGAATAATCCCTCAATATAAATATCTCTCACTTATTTAAA” was tested, and the “cleaved RNA product abundance” value [1] was 0.526.
In the case of “CGACATGTCCCGCTTCTTTCATTATTCCGTTAGCAACTGTTTTGCTTTATACATTTACCTTTTAAGAGGAGGAAT”, the “cleaved RNA product abundance” value [4] is reported as 0.401.
With “CGACATGTCCCGCTTCTTTCATTAATCCGTTAGCAACTGTATTGATATATACATTTACCTTTTAAGAGGAGGAAT” the “cleaved RNA product abundance” value [4] was 0.658.
“CGACATGTCCCGCTTCTTTCATTAATCCGTTAGCTACTGTTTTGCTATATACATTTAACTTTTAAGAGGAGGAAT” was tested, and the “cleaved RNA product abundance” value [4] was 0.621.
For “ACAGACGAAGGAGCCGCAAAGAAGTTATTACGCGATGAATAATCCCTCAATATAAATATCTCTCACTTATTTAAA”, the “cleaved RNA product abundance” value [1] was 0.0746.
In the case of “CGACATGTCCCGCTTCTTTCATTAATTCGTTAGCAACTGTTTAGCTATATACATTTACCTTTTAAGAGGAGGAAT”, the “cleaved RNA product abundance” value [4] is reported as 0.488.
With “ACAGACGAAGGAGCCGCAAATAAGTTATTAAGGGATGAATAACCCCTCAATATAAATATCTCTCACTTATTTAAA” the “cleaved RNA product abundance” value [3] was 0.582 and the “cleaved RNA product abundance” value [1] was 0.494.
With “ACAGACGAAGGAGCCGCAAAGAAGTTATTAAGGGATGAATAATCAGTCAATATAAATATCTCTCACTTATTTAAA” the “cleaved RNA product abundance” value [1] was 0.0967.
“CGACATGTCCCGCTTCTTTCATTACTCCGTTAGCAACTGTTTGGCTATATACATTTACCTTTTAAGAGGAGGAAT” was tested, and the “cleaved RNA product abundance” value [4] was 0.644.
